A word on the stoichiometry N: it is the number of molecules, sites or subunits per partner or assembly.

The values that follow come from article PMC10020961, “Structural Elucidation of Ivermectin Binding to α7nAChR and the Induced Channel Desensitization” (ACS Chemical Neuroscience, 2023).

In series [1] the target is full-length human α7 nicotinic acetylcholine receptor (human) (UniProt P36544). Nature of the series: SEC; S200 10/300 column, 20 mM HEPES pH 7.4, 300 mM NaCl, 0.2% DPC or 0.1% LDAO; pentamer fraction isolated. (SEC sorts molecules by how far they enter the pores of the column.)
Series [2] deals with the molecule itself. Nature of the series: NMR structure (NMR and ESR restraints with Rosetta comparative modelling); α7nAChR TMD + ICD in LDAO micelles, pH 4.7, 25 mM NaCl, 318 K, with ivermectin; fivefold symmetry applied in the calculations.

With “full-length human α7 nicotinic acetylcholine receptor (from UniProt P36544 23-502)”, the stoichiometry N in series [1] worked out at 5.

B1: human α7 nicotinic acetylcholine receptor construct containing the transmembrane and intracellular domains (α7nAChR TMD + ICD) (domain or fragment)
chain: LYYGLNLLIPCVLISALALLVFLLPADSGEKISLGITVLLSLTVFMLLVAEIMPATSDSVPLIAQYFASTMIIVGLSVVVTVIVLQYHHHDPDGGKMPKWTRVILLNWCAWFLRMKRPGEDKVRPACQHKQRRCSLASVEMSAVAPPPASNGNLLYIGFRGLDGVHCVPTPDSGVVCGRMACSPTHDEHLLHGGQPPEGDPDLAKILEEVRYIANRFRCQDESEAVCSEWKFAACVVDRLCLMAFSVFTIICTIGILMSAPNFVE
notes: α7 nicotinic acetylcholine receptor, human; construct with the transmembrane domain (TMD) and intracellular domain (ICD), without the extracellular domain; also called α7 TMD + ICD; α7 TMD-ICD; source: E. coli Rosetta 2(DE3) pLysS, purified (NiNTA, SEC pentamer fraction), in LDAO micelles
Regarding B1, the “stoichiometry N” value in series [2] was 5.
